Reference: publication PMC9835603, “A conserved SH3-like fold in diverse putative proteins tetramerizes into an oxidoreductase providing an antimicrobial resistance phenotype” (Philosophical Transactions of the Royal Society B: …, 2023)
Values joined by “and” are separate entries in the source; they are usually repeats but may differ in a detail not shown here. Equal values may be shown once. Read-outs that look alike come from different tables or passages of the source.

Key:
DfrB-H5 = molecular target: T1, DfrB-H5 (Methylobacterium pseudosasicola, UniProt A0A1I4V6W3); test: dihydrofolate reductase activity assay at […] nm with purified enzyme; Ki from IC50 by Cheng-Prusoff; type: biochemical
T1 construct: gene SAMN05192568_10896; full-length 365-residue protein, N-terminal His6 tag

[1] = system: NC(=O)C1=CN([C@@H]2O[C@H](COP(=O)(O)OP(=O)(O)OC[C@H]3O[C@@H](n4cnc5c(N)ncnc54)[C@H](OP(=O)(O)O)[C@@H]3O)[C@@H](O)[C@H]2O)C=CC1; test: steady-state kinetics (KM) with purified enzyme; type: biochemical, Escherichia coli; conditions: varied: cofactor
[2] = molecular target: DfrB-H5 (distant DfrB homologue from Methylobacterium pseudosasicola) (Methylobacterium pseudosasicola); test: negative-stain electron microscopy; purified protein from a single gel filtration peak, 40 ng/ul, uranyl formate stain, two-dimensional classification
[3] = molecular target: DfrB-H5 (distant DfrB homologue from Methylobacterium pseudosasicola) (Methylobacterium pseudosasicola); test: as above; remark: listed apart in the source
[4] = molecular target: His6-DfrB1 (type B dihydrofolate reductase DfrB1); test: SEC-MALS; SEC-MALLS; Superdex 200 10/300 GL for DfrB-H5, Superdex 75 10/300 GL for DfrB1, 0.4 ml/min
[5] = molecular target: His6-DfrB1 (type B dihydrofolate reductase DfrB1); test: negative-stain electron microscopy; purified protein from a single gel filtration peak, 40 ng/ul, uranyl formate stain, two-dimensional classification

O=C(O)c1ccc2[nH]c(-c3ccc(OCCCCCOc4ccc(-c5nc6cc(C(=O)O)ccc6[nH]5)cc4)cc3)nc2c1 [compound 1, 2,2′-[1,5-pentanediylbis(4-oxyphenylene)]-bis-1H-benzimidazole-5-carboxylic acid]
Ki (DfrB-H5; read-out: 1 / Ki): 12 ± 6 µM

CC1(C)Nc2nc(N)[nH]c(=O)c2N=C1C(=O)NCCN1CCC(SC[C@H]2O[C@@H](n3cnc4c(N)ncnc43)[C@H](O)[C@@H]2O)CC1 [compound 2, 2-amino-N-(2-(4-((((2S,3S,4R,5R)-5-(6-amino-9H-purin-9-yl)-3,4-dihydroxytetrahydrofuran-2-yl)methyl)thio)piperidin-1-yl)ethyl)-7,7-dimethyl-4-oxo-3,4,7,8-tetrahydropteridine-6-carboxamide]
Ki (DfrB-H5; read-out: 2 / Ki): 30 ± 10 µM

DfrB1 (Escherichia coli; Y69L)
Km [1]: 170 ± 20 µM

DfrB-H5 (distant DfrB homologue from Methylobacterium pseudosasicola) (enzyme)
stoichiometry N [2]: 4 | stoichiometry N [3]: 2 and 3

His6-DfrB1 (type B dihydrofolate reductase DfrB1) (enzyme)
stoichiometry N [4]: 4 | stoichiometry N [5]: 4
